Patent US20090270318A1
Several values for one entry are separate records, joined by “and”; a condition that tells them apart may be missing. Identical values can stand only once. Blank lines part the entries; values can stand above or below the molecule they belong to.

Experiments:
[1] = target: CXCL8 receptors on bovine peripheral blood neutrophils; test: 1000 ng/ml biotCXCL8 on medium-treated bovine neutrophils; streptavidin-enzyme and ABTS; ELISA plate reader
[2] = target: CXCL8 receptors on bovine peripheral blood neutrophils; test: displacement of 20 pM 125I-CXCL8 from 10^6 bovine neutrophils, 45 min on ice
[3] = target: CXCL8 receptors on bovine peripheral blood neutrophils; test: biotCXCL8 binding inhibition on bovine neutrophils; 10 ng/ml unlabeled CXCL8 2 h at 4 C, wash, then 1 ug/ml biotCXCL8; cell ELISA
[4] = target: CXCL8 receptors on bovine peripheral blood neutrophils; test: cell-based or functional assay
[5] = target: CXCL8 receptors on bovine peripheral blood neutrophils; test: displacement of 20 pM 125I-CXCL8 from bovine neutrophils; reference is unlabeled wildtype CXCL8
[6] = target: CXCL8 receptors on bovine peripheral blood neutrophils; test: biotCXCL8 binding inhibition on bovine neutrophils; 10 ng/ml analogue 2 h at 4 C, wash, then 1 ug/ml biotCXCL8; cell ELISA

OD405 [1]: 0.5 to 0.6 OD405
Molecule: biotinylated CXCL8 (from UniProt P79255 23-101) (ligand)

IC50 [2]: 0.12 nM
percent of ^biotCXCL8 binding blocked [3]: 30%
Molecule: bovine CXCL8 (wild type, unlabeled) (from UniProt P79255 23-101) (ligand)

IC50, inhibition of bovine neutrophil chemotaxis to 1 µg/ml (129 nM) CXCL8 [4]: 0.11 nM
agonist activity: chemotaxis of bovine neutrophils to 100 ng/ml analogue, as percent of the response to 1 ng/ml CXCL8 [4]: 13.9%
agonist activity: chemotaxis of bovine neutrophils to 100 ng/ml analogue, as percent of the response to 100 ng/ml CXCL8 [4]: 5.4%
concentration for complete blocking of bovine neutrophil chemotaxis to 1 µg/ml CXCL8 [4]: 10 nM
concentration for complete inhibition of bovine neutrophil chemotaxis to human CXCL5, CXCL1 or CXCL8 [4]: 3 nM and 20 nM
concentration reducing bovine neutrophil chemotaxis to 1 ng/ml hCXCL1 to 50% [4]: 0.26 nM
concentration reducing bovine neutrophil chemotaxis to 1 ng/ml hCXCL5 to 50% [4]: 0.06 nM
concentration reducing bovine neutrophil chemotaxis to 10 ng/ml hCXCL8 by 50% [4]: 0.04 nM
reduction of bovine neutrophil chemotactic response to 1 µg/ml (129 nM) CXCL8 by 12.9 pM analogue [4]: 33%
IC50 [2]: 0.004 nM
fold more effective than wildtype CXCL8 in inhibiting 125I-CXCL8 binding [5]: 100 fold
percent of ^biotCXCL8 binding blocked [6]: 95%
B1: bovine CXCL8(3-74)K11R/G31P (ligand)
chain: TELRCQCIRTHSTPFHPKFIKELRVIESPPHCENSEIIVKLTNGNEVCLNPKEKWVQKVVQVFVKRAEKQDP

agonist activity: chemotaxis of bovine neutrophils to 100 ng/ml analogue, as percent of the CXCL8 response [4]: 38.3%
percent of ^biotCXCL8 binding blocked [6]: 48%
B2: bovine CXCL8(3-74)K11R/P32G (ligand)
chain: TELRCQCIRTHSTPFHPKFIKELRVIESGGHCENSEIIVKLTNGNEVCLNPKEKWVQKVVQVFVKRAEKQDP
